The numbers were not newly measured in patent US20170173060A1, “ACTIVATION OF THE ENDOGENOUS ILEAL BRAKE HORMONE PATHWAY FOR ORGAN REGENERATION AND RELATED COMPOSITIONS, METHODS OF TREATMENT, DIAGNOSTICS, AND REGULATORY SYSTEMS” (VOLANT HOLDINGS GMBH, priority 2014, published 2017), which cites them from elsewhere.

One data set relates to MIN-6 cells. As to conditions: immunoprecipitation and western blotting.
Data set [1] relates to severely streptozotocin-diabetic rats. The note with it: rat, in vivo.

B1: Betacellulin (protein, UniProt P35070 32-111, looked up)
Betacellulin: DGNSTRSPETNGLLCGDPEENCAATTTQSKRKGHFSRCPKQYKHYCIKGRCRFVVAEQTPSCVCDEGYIGARCERVDLFY
modifications: Betacellulin
notes: member of the epidermal growth factor family
For the molecule B1, the “phosphorylation of EGF receptors (ErbBs)” value in the data set with MIN-6 cells was “induced phosphorylation of only ErbB-1 and ErbB-2”.

B2: EGF (protein, UniProt P01133 23-1207, looked up)
Pro-epidermal growth factor: PQHWSCPEGTLAGNGNSTCVGPAPFLIFSHGNSIFRIDTEGTNYEQLVVDAGVSVIMDFHYNEKRIYWVDLERQLLQRVFLNGSRQERVCNIEKNVSGMAINWINEEVIWSNQQEGIITVTDMKGNNSHILLSALKYPANVAVDPVERFIFWSSEVAGSLYRADLDGVGVKALLETSEKITAVSLDVLDKRLFWIQYNREGSNSLICSCDYDGGSVHISKHPTQHNLFAMSLFGDRIFYSTWKMKTIWIANKHTGKDMVRINLHSSFVPLGELKVVHPLAQPKAEDDTWEPEQKLCKLRKGNCSSTVCGQDLQSHLCMCAEGYALSRDRKYCEDVNECAFWNHGCTLGCKNTPGSYYCTCPVGFVLLPDGKRCHQLVSCPRNVSECSHDCVLTSEGPLCFCPEGSVLERDGKTCSGCSSPDNGGCSQLCVPLSPVSWECDCFPGYDLQLDEKSCAASGPQPFLLFANSQDIRHMHFDGTDYGTLLSQQMGMVYALDHDPVENKIYFAHTALKWIERANMDGSQRERLIEEGVDVPEGLAVDWIGRRFYWTDRGKSLIGRSDLNGKRSKIITKENISQPRGIAVHPMAKRLFWTDTGINPRIESSSLQGLGRLVIASSDLIWPSGITIDFLTDKLYWCDAKQSVIEMANLDGSKRRRLTQNDVGHPFAVAVFEDYVWFSDWAMPSVMRVNKRTGKDRVRLQGSMLKPSSLVVVHPLAKPGADPCLYQNGGCEHICKKRLGTAWCSCREGFMKASDGKTCLALDGHQLLAGGEVDLKNQVTPLDILSKTRVSEDNITESQHMLVAEIMVSDQDDCAPVGCSMYARCISEGEDATCQCLKGFAGDGKLCSDIDECEMGVPVCPPASSKCINTEGGYVCRCSEGYQGDGIHCLDIDECQLGEHSCGENASCTNTEGGYTCMCAGRLSEPGLICPDSTPPPHLREDDHHYSVRNSDSECPLSHDGYCLHDGVCMYIEALDKYACNCVVGYIGERCQYRDLKWWELRHAGHGQQQKVIVVAVCVVVLVMLLLLSLWGAHYYRTQKLLSKNPKNPYEESSRDVRSRRPADTEDGMSSCPQPWFVVIKEHQDLKNGGQPVAGEDGQAADGSMQPTSWRQEPQLCGMGTEQGCWIPVSSDKGSCPQVMERSFHMPSYGTQTLEGGVEKPHSLLSANPLWQQRALDPPHQMELTQ
modifications: Pro-epidermal growth factor
Turning to B2, in data set [1], the glucose tolerance result was “neither gastrin nor EGF alone improved glucose tolerance”.
